Measurements: publication PMC9757748

How the values were obtained:
[1] = biological target: N-terminally hexahistidine-tagged full-length BcsH (Bcs^H^isH^FL) (G. hansenii); test: SDS-PAGE and Western blot
[2] = biological target: BcsD (purified alone via a cleavable N-terminal hexahistidine tag, Bcs^H^isD) (G. hansenii); test: cryo-EM structure

stoichiometry N [1] | stoichiometry N [2] | Substance
2 |  | N-terminally hexahistidine-tagged full-length BcsH (Bcs^H^isH^FL) (natural protein)
 | 8 | BcsD (purified alone via a cleavable N-terminal hexahistidine tag, Bcs^H^isD) (natural protein)
